What follows are sequences tested on Escherichia coli TOP10 (assay: shrunken log2 fold change of peptide-encoding DNA abundance (4.5 h post-induction vs induction); higher = less antimicrobial activity (less host growth inhibition)). Conditions: time post-induction: 4.5 h; library: site-saturation at positions 5, 18, 19, 20.
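Further: peptides expressed intracellularly from a pBAD plasmid library in pooled LB shake-flask culture, induced with 0.3% L-arabinose, DNA abundance read by NGS, three biological replicates, DESeq2 with apeglm shrinkage.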

Row | Sequence | shrunken log2 fold change
1 | RRIRWRPPRLPRPRPRPIYRPRP | 0.0155
2 | RRIRERPPRLPRPRPRPHCAPRP | 0.201
3 | RRIRLRPPRLPRPRPRPLIPPRP | -0.41
4 | RRIRARPPRLPRPRPRPHKEPRP | 0.131
5 | RRIRQRPPRLPRPRPRPAYQPRP | -0.00193
6 | RRIRHRPPRLPRPRPRPPPPPRP | 1.05
7 | RRIRLRPPRLPRPRPRPKHDPRP | -0.0476
8 | RRIRPRPPRLPRPRPRPNSCPRP | -0.241
9 | RRIRCRPPRLPRPRPRPIMAPRP | -0.236
10 | RRIRNRPPRLPRPRPRPMAEPRP | 0.0284
11 | RRIRRRPPRLPRPRPRPIYAPRP | 3.39
12 | RRIRGRPPRLPRPRPRPKNTPRP | 0.232
13 | RRIRVRPPRLPRPRPRPHIQPRP | -0.528
14 | RRIRQRPPRLPRPRPRPRKYPRP | -0.2
15 | RRIRWRPPRLPRPRPRPRGNPRP | 0.423
16 | RRIRIRPPRLPRPRPRPMGSPRP | -0.0432
17 | RRIRTRPPRLPRPRPRPNMHPRP | 0.561
18 | RRIRCRPPRLPRPRPRPQAMPRP | 0.189
19 | RRIRFRPPRLPRPRPRPHQYPRP | -0.88
20 | RRIRMRPPRLPRPRPRPNFVPRP | 0.0215
21 | RRIRNRPPRLPRPRPRPPSDPRP | -0.118
22 | RRIRHRPPRLPRPRPRPWDFPRP | -0.0612
23 | RRIRTRPPRLPRPRPRPSWNPRP | -0.34
24 | RRIRPRPPRLPRPRPRPRVLPRP | -0.0343
25 | RRIRMRPPRLPRPRPRPQAKPRP | 0.0296

Row | Sequence | shrunken log2 fold change
26 | RRIRPRPPRLPRPRPRPVTYPRP | -0.0866
27 | RRIRARPPRLPRPRPRPWDFPRP | -0.00352
28 | RRIRGRPPRLPRPRPRPDRTPRP | -0.0561
29 | RRIRGRPPRLPRPRPRPVSHPRP | 0.389
30 | RRIRDRPPRLPRPRPRPGCMPRP | 0.206
31 | RRIRFRPPRLPRPRPRPCILPRP | -0.0567
32 | RRIRYRPPRLPRPRPRPYSRPRP | -0.01
33 | RRIRRRPPRLPRPRPRPFHRPRP | 0.0574
34 | RRIRIRPPRLPRPRPRPIKLPRP | -0.289
35 | RRIRERPPRLPRPRPRPHTWPRP | -0.33
36 | RRIRQRPPRLPRPRPRPQTCPRP | 0.0348
37 | RRIRQRPPRLPRPRPRPKMFPRP | 0.106
38 | RRIRVRPPRLPRPRPRPVAEPRP | 0.104
39 | RRIRFRPPRLPRPRPRPPQAPRP | 0.558
40 | RRIRDRPPRLPRPRPRPSWTPRP | -0.274
41 | RRIRWRPPRLPRPRPRPKGKPRP | -0.00191
42 | RRIRTRPPRLPRPRPRPVMEPRP | 0.187
43 | RRIRWRPPRLPRPRPRPNEYPRP | -0.39
44 | RRIRSRPPRLPRPRPRPCHLPRP | -0.0433
45 | RRIRHRPPRLPRPRPRPNVCPRP | -0.0562
46 | RRIRQRPPRLPRPRPRPHMRPRP | 0.36
47 | RRIRTRPPRLPRPRPRPQRLPRP | -0.223
48 | RRIRYRPPRLPRPRPRPMLYPRP | -0.877
49 | RRIRCRPPRLPRPRPRPTASPRP | 0.266
50 | RRIRWRPPRLPRPRPRPLAMPRP | 0.0898

Row | Sequence | shrunken log2 fold change
51 | RRIRRRPPRLPRPRPRPSTMPRP | -0.467
52 | RRIRCRPPRLPRPRPRPVFYPRP | -0.379
53 | RRIRGRPPRLPRPRPRPSRTPRP | 0.536
54 | RRIRWRPPRLPRPRPRPWMCPRP | -0.174
55 | RRIRMRPPRLPRPRPRPRARPRP | 1.67
56 | RRIRNRPPRLPRPRPRPQGKPRP | 0.0697
57 | RRIRPRPPRLPRPRPRPTHFPRP | 0.442
58 | RRIRFRPPRLPRPRPRPIFWPRP | 0.192
59 | RRIRSRPPRLPRPRPRPSRLPRP | -0.0299
60 | RRIRMRPPRLPRPRPRPCGDPRP | 0.34
61 | RRIRMRPPRLPRPRPRPWVQPRP | 0.015
62 | RRIRNRPPRLPRPRPRPIYWPRP | 0.0553
63 | RRIRERPPRLPRPRPRPLDRPRP | 0.0551
64 | RRIRSRPPRLPRPRPRPSKRPRP | -0.126
65 | RRIRCRPPRLPRPRPRPPLPPRP | 0.539
66 | RRIRKRPPRLPRPRPRPGNFPRP | -0.373
67 | RRIRGRPPRLPRPRPRPAPMPRP | 1.1
68 | RRIRLRPPRLPRPRPRPEHMPRP | -0.336
69 | RRIRVRPPRLPRPRPRPSGAPRP | 0.197
70 | RRIRPRPPRLPRPRPRPMNLPRP | 0.00249
71 | RRIRHRPPRLPRPRPRPLDNPRP | -0.515
72 | RRIRKRPPRLPRPRPRPDSVPRP | 0.0996
73 | RRIRFRPPRLPRPRPRPWCFPRP | -0.282
74 | RRIRWRPPRLPRPRPRPMVFPRP | 0.274
75 | RRIRSRPPRLPRPRPRPECCPRP | 0.21

From the supplement of paper PMC9112550, “Optimization of the antimicrobial peptide Bac7 by deep mutational scanning” (BMC Biology, 2022)
